According to US20210063414A1, “METHODS FOR PREVENTING AND/OR TREATING BONE LOSS CONDITIONS BY MODULATING IRISIN” (Dana-Farber Cancer Institute, Inc., priority 2018, published 2021):
“Also recorded” adds a separate entry of the source.

How the values were obtained:
integrin αV/β5 = experiment: Protein-protein binding assay: irisin with his-tag integrins, Ni-NTA co-precipitation and immunoblot; set-up: species or system murine and human; details: 100 nM irisin, 5 nM his-tag integrin
Description: 100 nM irisin was incubated with 5 nM indicated his-tag integrins followed by immunoprecipitation using Ni-NTA agaroses. Precipitated integrins and co-precipitated irisin were analyzed by immunoblot analysis. […] HEK293T cells were seeded and incubated until 50% cell density. The cells were transfected with 0.1 μg plasmids of indicated integrins. After 48 hours, the cells were incubated with Freestyle293 medium for 3 hours and were treated with indicated concentration of irisin for 5 minutes. Cells were lysed to detect the indicated protein level using immunoblot analysis. […] Sclerostin mRNA level was analyzed by qRT-PCR. […]
100 nM irisin was incubated with 5 nM indicated his-tag integrins followed by immunoprecipitation using Ni-NTA agaroses. Precipitated integrins and co-precipitated irisin were analyzed by immunoblot analysis. […] Cells were treated and analyzed as FIG. 14B except using plasmids encoding integrin α5/β1 or integrin α11/β1 (FIG. 15C) integrin αV/β1(FIG. 15D).
100 nM flag-tagged mammalian irisin was incubated with 5 nM of the indicated his-tag integrins in a final volume of 600 μl in 1.5 ml Protein LoBind Tubes (Eppendorf®, 022431081) for 5 minutes at room temperature under rotation. […] Precipitated integrins were detected by immunoblot analysis against his tag. Co-precipitated irisin was detected by immunoblot analysis against flag-tag.

epididymal fat (eWAT) = experiment: Irisin injection in mice: thermogenic and creatine cycle gene mRNA in epididymal fat; assay type: in vivo; details: irisin injections 6 days
Description: Eight week old mice were injected with indicated dose of irisin or 1 mg/kg CL316243 for 6 days. Epididymal fats (eWAT) were collected and indicated genes mRNA level was analyzed by qPCR. GATM is the first and rate-limiting step of creatine synthesis (Sandell et al. (2003) Proc. Natl. Acad. Sci. U.S.A. 100:4622-4627).
Certain materials and methods were used to generate the results described herein. For example, the data shown in FIG. 1A resulted from MLO-Y4 (an osteocyte-like cell line) cells treated with the indicated concentration of irisin and hydrogen peroxide for 4 hours. Cells were stained with Hoechst 33342 (ThermoFisher Scientific, catalog number H3570) and Eth-D1 (ThermoFisher Scientific, catalog number E1169) and analyzed to determine the percentage of cell death using ImageJ. […] Co-precipitated irisin was analyzed by immunoblot analysis against flag tag (Sigma Aldrich, catalog number A8592). The data shown in FIGS. 5A and 5B were generated from MLO-Y4 cells treated and analyzed as in the experiments used to generate the data shown in FIG. 2D, except that pre-treatment of 100 nM RGDS (FIG. 5A) or echistatin (R & D Systems Inc., catalog number 3202/100U) (FIG. 5B) for 10 minutes was performed before irisin treatment. […] Sclerostin mRNA level was analyzed by qPCR (FIG. 7A). […]

B1: irisin: secreted cleaved form of FNDC5; recombinant human/mouse irisin with C-terminal his tag produced in HEK293 cells (protein)
chain: DSPSAPVNVTVRHLKANSAVVSWDVLEDEVVIGFAISQQKKDVRMLRFIQEVNTTTRSCALWDLEEDTEYIVHVQAISIQGQSPASEPVLFKTPREAEKMASKNKDEVTMKE
modifications: left off: small tags and cut ends
notes: secreted cleaved form of FNDC5; recombinant human/mouse irisin with C-terminal his tag produced in HEK293 cells
Integrin αV/β5
  extent of binding of irisin to integrin complex: by far the highest extent of binding; also recorded: highest apparent affinity
Epididymal fat (eWAT)
  expression of futile creatine cycle genes (GATM, CKMT2, CKB): also increased expression
  mRNAs of classical thermogenic pathway genes (UCP1, DIO 2): increased expression
